Assays:
primary MM cells = assay: Lysis of primary multiple myeloma cells by healthy donor-derived Vγ9Vδ2-T cells; assay type: cell-based, human; settings: overnight with healthy donor-derived Vγ9Vδ2-T cells, 1:1; FIG. 17B
Method: FIG. 17: V19S76K-5C8 is active against primary multiple myeloma. (A) Example of CD40 expression on primary MM cells, as detected using anti-CD40 PE antibody, clone MAB89, Beckman Couter, IM1936U. Representative histograms of 4 donors (B) Bone marrow of MM patients was cultured overnight in the presence or absence of healthy donor-derived Vγ9Vδ2-T cells in a 1:1 (Vγ9Vδ2-T:plasma cell) ratio in the absence or presence of V19S76K-5C8 (10 μM or 10 nM). Live plasma cells were quantified by flow cytometry using counting beads (n=5). (C, D) Mononuclear cells from the bone marrow of MM patients were cultured overnight with V19S76K-5C8 (VHH; 10 nM), aminobisphosphonate (ABP; 10 μM zoledronic acid (positive control)) or medium control in the presence of brefeldin, monensin and anti-CD107a to measure (C) cytokine production and (D) degranulation by flow cytometry (n=6). Data are presented as mean and SEM. *P<0.05, **P<0.01. (B-D: repeated-measures one-way ANOVA followed by Dunnett's post hoc test compared to condition without antibody).
Because CD40 is also expressed on primary multiple myeloma (MM) cells (Pellat-Deceunynck et al. (1994) Blood 84:2597) (FIG. 17A) and CD40 stimulation exerts various biological effects, including proliferation of MM cells, we assessed the efficacy of V19S76K-5C8 in primary bone marrow samples from MM patients.

CD40 = molecular target: T1, CD40 (Homo sapiens, UniProt P25942); assay: CD40 antagonistic activity in primary CLL cells: pre-incubation, then rmCD40L for 48 h; assay type: cell-based; settings: pre-incubation, then rmCD40L for 48 hours; FIG. 8A-C
T1 construct: Primary chronic lymphocytic leukemia (CLL) cells express CD40 on the cell surface; endogenous in cells; host or cells: primary CLL PBMCs from untreated CLL patients
Method: PBMCs (≥90% CD5^+CD19^+) from untreated CLL patients were obtained and cryopreserved as described in […]. Thawed cells were kept in complete IMDM.
To test whether the VHH antagonizes CD40 stimulation, primary CLL PBMCs were pre-incubated with VHH or medium control for 30 minutes at 37° C. and subsequently cultured for 48 hours in the presence of rmCD40L (100 ng/mL).
After 48 hours, cells were analyzed by flow cytometry as described in Example 4.
To assess whether binding of the VHH has antagonistic effects, primary CLL PBMCs were pre-incubated with V19S76K-5C8 or medium control and then cultured with rmCD40L for 48 hours and analyzed by flow cytometry as described in Example 5.

T1 sequence (P25942 21-277): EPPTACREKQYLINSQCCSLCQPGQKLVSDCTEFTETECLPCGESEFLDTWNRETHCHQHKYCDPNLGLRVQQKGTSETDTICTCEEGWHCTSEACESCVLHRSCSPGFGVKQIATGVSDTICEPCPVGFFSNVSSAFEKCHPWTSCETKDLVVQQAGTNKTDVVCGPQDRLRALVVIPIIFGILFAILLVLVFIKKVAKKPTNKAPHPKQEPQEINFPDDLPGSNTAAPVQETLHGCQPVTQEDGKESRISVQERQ

B1: V19S76K-5C8: tag-less bispecific anti-CD40-anti-Vγ9Vδ2-TCR VHH, SEQ ID NO:23 (protein)
VHH: QVQLQESGGGLVQAGGSLRLSCAASGRTFGRSAMGWFRQAPGKEREFVAAIGTRGGSTKYADSVKGRFTISTDNAKNTVYLQMDSLKPEDTAVYRCAVRGPGYPSAAIFQDEYHYWGQGTQVTVSSGGGGSEVQLVESGGGLVQAGGSLRLSCAASGRPFSNYAMGWFRQAPGKEREFVAAISWSGGSTSYADSVKGRFTISRDNAKNTVYLQMNSPKPEDTAIYYCAAQFSGADYGFGRLGIRGYEYDYWGQGTQVTVSS
modifications: antibody sequence
- lysis of primary MM cells (primary MM cells): lysed primary MM cells
- prevention of the effects of CD40 stimulation (CD80, CD86 and CD95 expression) (CD40): prevented the effects of CD40 stimulation in a dose-dependent manner

Reference: US20220135694A1, “NOVEL CD40-BINDING ANTIBODIES” (LAVA THERAPEUTICS B.V., priority 2019, published 2022)
